According to PMC9639781:

Target: ATP synthase (endogenous, mouse cardiomyocytes) (mouse (endogenous in mouse neonatal cardiomyocytes)) (UniProt P56480)
Assay: native gel or EMSA

ATP synthase (endogenous, mouse cardiomyocytes) (from UniProt P56480 47-529; Q9DCX2 1-161; Q9DB20 24-213; Q9CQQ7 43-256) (complex)
stoichiometry N: 2
